Experimental findings from patent publication US20040161746A1 (published 2004) are described below.

This experiment addresses T1, B1153 protein (human, UniProt Q96JG6 1-964).
T1 construct: also called indicator protein
T1 sequence: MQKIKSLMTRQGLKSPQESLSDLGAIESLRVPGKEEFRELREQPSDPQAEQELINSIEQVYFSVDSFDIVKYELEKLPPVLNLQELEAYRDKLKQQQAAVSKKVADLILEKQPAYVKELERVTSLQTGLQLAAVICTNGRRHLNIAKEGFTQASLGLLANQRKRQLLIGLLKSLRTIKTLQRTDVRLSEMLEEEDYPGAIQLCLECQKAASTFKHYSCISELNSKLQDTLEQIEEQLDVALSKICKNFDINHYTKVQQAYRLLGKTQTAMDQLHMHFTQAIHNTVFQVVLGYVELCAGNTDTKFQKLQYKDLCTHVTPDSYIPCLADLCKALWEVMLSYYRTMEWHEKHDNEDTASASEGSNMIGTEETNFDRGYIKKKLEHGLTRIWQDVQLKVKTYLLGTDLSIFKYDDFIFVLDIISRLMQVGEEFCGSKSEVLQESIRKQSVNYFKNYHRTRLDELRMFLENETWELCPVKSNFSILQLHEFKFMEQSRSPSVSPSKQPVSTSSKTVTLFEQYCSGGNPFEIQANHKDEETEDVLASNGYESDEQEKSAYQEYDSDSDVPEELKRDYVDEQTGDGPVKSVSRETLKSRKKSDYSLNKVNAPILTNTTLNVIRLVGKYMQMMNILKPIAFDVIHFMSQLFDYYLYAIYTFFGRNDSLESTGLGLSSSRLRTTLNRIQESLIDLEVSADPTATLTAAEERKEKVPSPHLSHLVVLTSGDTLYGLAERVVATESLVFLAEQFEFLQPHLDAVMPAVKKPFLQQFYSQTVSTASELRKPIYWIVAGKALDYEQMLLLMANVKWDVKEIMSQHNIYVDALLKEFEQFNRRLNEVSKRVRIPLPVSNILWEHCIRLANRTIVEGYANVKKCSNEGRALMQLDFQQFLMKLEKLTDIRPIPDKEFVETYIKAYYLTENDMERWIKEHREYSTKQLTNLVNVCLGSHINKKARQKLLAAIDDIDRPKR
Put plainly: yeast two-hybrid (PROQUEST, GAL4), B1153 full-length ORF as bait, Human Brain cDNA library prey. The protocol:
By the PROQUEST™ TWO-Hybrid system (Invitrogen) utilizing the in vivo gene expression system of GAL4 series yeast, a search for a protein that interacts with the protein of this invention was carried out. Screening for a protein that interacts with B1153 was conducted for the Human Brain cDNA library with the full-length ORF region (86 bp to 2977 bp) of the B1153 gene as a bait. In this case, protocol according to the manual attached to the system was used.

B1: myosin binding subunit 85 partial sequence, Prey-No. 3 (590 aa to 782 aa) (other, human, UniProt Q9BZL4 590-782, looked up)
chain: PSRRPRVPGVENSDSPAQRAEAPDGQGPGPQAAREHRKVGKEWRGPAEGEEAEPADRSQESSTLEGGPSARRQRWQRDLNPEPEPESEEPDGGFRTLYAELRRENERLREALTETTLRLAQLKVELERATQRQERFAERPALLELERFERRALERKAAELEEELKALSDLRADNQRLKDENAALIRVISKLSK
notes: range 590-782; Prey clone from a Human Brain cDNA library in the yeast two-hybrid system
Consider B1, for which the binding result is “binds”.

B2: myosin binding subunit 85 partial sequence, Prey-No. 4 (590 aa to 782 aa) (other, human, UniProt Q9BZL4 590-782, looked up)
chain: B1 chain
notes: range 590-782; Prey clone from a Human Brain cDNA library; It has the same amino acid range as Prey-No. 3 and differs only in 3'-UTR length; The prey fusion domain is not described
Turning to B2, the binding result is given as “binds”.

B3: myosin binding subunit 85 partial sequence, Prey-No. 11 (656 aa to 782 aa) (other, human, UniProt Q9BZL4 656-782, looked up)
chain: GPSARRQRWQRDLNPEPEPESEEPDGGFRTLYAELRRENERLREALTETTLRLAQLKVELERATQRQERFAERPALLELERFERRALERKAAELEEELKALSDLRADNQRLKDENAALIRVISKLSK
notes: range 656-782; Prey clone from a Human Brain cDNA library; The prey fusion domain is not described
Turning to B3, the binding result is given as “binds”.
